Test [1] addresses DR1-restricted TCR HA1.7. The experiment in a line: flow cytometry: HA1.7-transduced primary CD4+ T cells stained with PE DR1 dimer and anti-CD4. (In general: Flow cytometry measures light scatter and fluorescence of single cells or particles in a stream.)
The target in test [2] is DR1-restricted TCR HA1.7. The experiment in a line: flow cytometry: TCR-transduced primary human T cells stained with PE class II dimer and anti-CD4.
Test [3] has as its target DR1-restricted TCR HA1.7. In words: flow cytometry: HA1.7-transduced primary CD4+ T cells stained with PE DR1 dimer and anti-CD4. This is another data set of the same source.

“DR1^L114W/V143M dimer with the cognate peptide of TCR HA1.7 (peptide-MHC)” showed a percent of cells in the dimer+ CD4+ quadrant in test [1] of 1.5%.
Consider “DR1^L114W/V143M+2reps dimer specific to Flu-HA306-318 (peptide-MHC)”, for which the percent of cells in the dimer+ CD4+ quadrant amounted to 48.9% in test [1], 9.1% in test [2] and 53% in test [3].

The values are drawn from patent US20220281949A1.
